The target in series [1] is T1, Bovine serum albumin (BSA) (Bos taurus, UniProt P02769 P02769:25-607). In words: EMSA; 37 C 1 h. Here is the method:
(§1) Specificity tests of the Th-RNA origami with two proteins (Factor IXa and Xa) involved in the coagulation cascade and one common protein (bovine serum albumin, BSA) were performed. To test specificity, the RNA origami was incubated with protein at 37° C. for one hour and characterized by native acrylamide gel electrophoresis. The non-aptamer presenting on RNA origami (2HF-RNA-NNNN) was not able to bind to all four proteins (FIG. 25). All seven designs of RNA origami with RNA thrombin aptamers (2HF-RNA-12NN, 1N2N, 2NN1, Fss12, 2HF-2211, 3HF-2NN1, and 4HF-2NN1) show the specificity binding with thrombin as results shown in FIGS. 26-28 and FIGS. 42-45).
(§2) For specificity tests, heat-annealed RNA origami or DNA weave tile (5 pmol) was dissolved in 1× annealing buffer and incubated with protein (25 pmol) at 37° C. for 1 hr. The samples were tested by 6% native acrylamide gel electrophoresis in 1×TBE as running buffer at 150 V for 3 hr. The gels were stained with Ethidium bromide for nucleic acid staining and visualized under a UV lamp. Then, the gels were further stained with Coomassie blue for protein staining and imaged with the ProteinSimple instrument.
For orientation: A gel shift assay detects complexes by their altered migration in electrophoresis.

The target of series [2] is T2, Factor IXa (UniProt P00740;P00740 P00740:47-191,P00740:227-461). Briefly: EMSA; 37 C 1 h. Here is the method: as §1, §2
T2 sequence (P00740 47-191, chain 1 of 2): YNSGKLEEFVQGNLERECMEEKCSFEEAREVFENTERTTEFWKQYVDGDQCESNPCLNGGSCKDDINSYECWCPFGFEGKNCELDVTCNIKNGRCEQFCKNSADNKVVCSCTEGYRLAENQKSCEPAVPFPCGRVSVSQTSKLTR
T2 sequence (P00740 227-461, chain 2 of 2): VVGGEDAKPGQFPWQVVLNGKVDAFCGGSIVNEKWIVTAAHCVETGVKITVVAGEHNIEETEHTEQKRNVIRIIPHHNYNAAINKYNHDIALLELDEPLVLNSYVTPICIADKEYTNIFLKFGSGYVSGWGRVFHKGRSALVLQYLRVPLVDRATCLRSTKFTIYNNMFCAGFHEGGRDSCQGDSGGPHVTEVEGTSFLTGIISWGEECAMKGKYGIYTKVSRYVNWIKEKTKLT
Series [3] addresses T3, Factor Xa (UniProt P00742;P00742 P00742:41-179,P00742:235-488). In words: EMSA; 37 C 1 h. The procedure:
as §1, §2

Series [4] has as its target T4, Thrombin (UniProt P00734;P00734 P00734:328-363,P00734:364-622). Briefly: EMSA; 5 pmol RNA + 25 pmol protein, 37 C 1 h.
In series [5] the target is T1, Bovine serum albumin (BSA). In words: EMSA; 5 pmol RNA + 25 pmol protein, 37 C 1 h. Conditions: 2-helix RNA origami with tetraloops and 180 degree kissing loop, no aptamer. The procedure: as §1, §2
Series [6] deals with T2, Factor IXa. Briefly: EMSA; 5 pmol RNA + 25 pmol protein, 37 C 1 h. Conditions: 2-helix RNA origami with tetraloops and 180 degree kissing loop, no aptamer. The procedure:
as §1, §2

The target in series [7] is T3, Factor Xa. Briefly: EMSA; 5 pmol RNA + 25 pmol protein, 37 C 1 h. Conditions: 2-helix RNA origami with tetraloops and 180 degree kissing loop, no aptamer. Here is the method: as §1, §2
Series [8] addresses T4, Thrombin. In words: EMSA; 5 pmol RNA + 25 pmol protein, 1x annealing buffer, 37 C 1 h, 6% native PAGE.
Setting [9] is: two aptamers (exosite 2 and exosite 1) joined by 31 nt single-stranded linker.
The mark [10] stands for this setting: 2-helix RNA origami with exosite 1 and exosite 2 aptamers.
Setting [11] is: 2-helix RNA origami with exosite 1 aptamer (RNAR9D-14T) and exosite 2 aptamer (Toggle-25t).

T3 sequence (P00742 41-179, chain 1 of 2): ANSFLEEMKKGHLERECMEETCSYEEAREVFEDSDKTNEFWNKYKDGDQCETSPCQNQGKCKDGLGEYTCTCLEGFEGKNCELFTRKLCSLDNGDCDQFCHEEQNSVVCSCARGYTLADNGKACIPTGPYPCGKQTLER
T3 sequence (P00742 235-488, chain 2 of 2): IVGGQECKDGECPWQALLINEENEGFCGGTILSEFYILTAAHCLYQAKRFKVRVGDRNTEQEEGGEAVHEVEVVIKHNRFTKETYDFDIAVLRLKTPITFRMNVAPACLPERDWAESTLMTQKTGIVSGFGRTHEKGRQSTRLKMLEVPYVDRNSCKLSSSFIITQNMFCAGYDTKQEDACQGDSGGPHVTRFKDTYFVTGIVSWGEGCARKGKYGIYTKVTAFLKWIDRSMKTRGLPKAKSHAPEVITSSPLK
T1 sequence (P02769 25-607, one chain of several): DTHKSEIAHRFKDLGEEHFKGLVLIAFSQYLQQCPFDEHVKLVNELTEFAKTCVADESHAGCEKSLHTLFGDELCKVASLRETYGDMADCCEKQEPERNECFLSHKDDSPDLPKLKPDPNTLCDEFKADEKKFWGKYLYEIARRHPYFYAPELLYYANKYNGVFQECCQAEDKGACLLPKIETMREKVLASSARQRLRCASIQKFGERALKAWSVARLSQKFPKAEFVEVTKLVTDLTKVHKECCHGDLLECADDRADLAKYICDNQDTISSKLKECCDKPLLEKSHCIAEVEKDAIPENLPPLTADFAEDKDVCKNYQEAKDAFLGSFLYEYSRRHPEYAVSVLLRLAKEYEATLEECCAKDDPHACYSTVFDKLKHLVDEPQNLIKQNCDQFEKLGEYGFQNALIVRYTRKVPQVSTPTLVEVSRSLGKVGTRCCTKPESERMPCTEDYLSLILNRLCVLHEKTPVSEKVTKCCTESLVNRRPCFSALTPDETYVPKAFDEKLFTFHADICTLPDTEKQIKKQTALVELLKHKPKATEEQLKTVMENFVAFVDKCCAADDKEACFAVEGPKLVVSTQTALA

B1: Fss12 (ssRNA)
RNA: GGGAACAAAGCUGAAGUACUUACCCACCUUACCACUCCACCUCACUCACCUAUUACGGCGGUCGAUCACACAGUUCAAACGUAAUAAGCCAAUGUACGAGGCAGACGACUCGCC
modifications: 2'-F at all C and U
As to B1, the binding result is listed as “no binding” in series [1] (setting [9]), “no binding” with Factor IXa [2] (setting [9]), “no binding” in the series with Factor Xa [3] (setting [9]) and “binds” with Thrombin [4].

B2: 2HF-RNA-2NN1 (ssRNA)
RNA: GGGAGAUCGAGCGACUUCCGACUUCGGUCGGGAGUCGGGCUAGUCAUCUUCGGAUGAUUAGCCGCUGGUGAAGCCUCCACGCCAGCCUCGGUCUCCCGCAGUAGGAUCGGACUGAAGGAGGCACGGUCCCAGCCGAAGUGUCUUGCGGGAACAAAGCUGAAGUACUUACCCGCAAGGCACUUUGGCUGCUAGACUGGCUGGCGGCGGUCGAUCACACAGUUCAAACGUAAUAAGCCAAUGUACGAGGCAGACGACUCGCCGCCAGCUAGUUUAGGAUUCUAUUGC
modifications: 2'-F at all C and U
With B2, the binding result in series [1] (setting [10]) is on record as “no binding”; with Factor IXa [2] (setting [10]), “no binding”; with Factor Xa [3] (setting [10]), “no binding”; with Thrombin [4], “binds”.

B3: 2HF-RNA-NNNN (ssRNA)
RNA: GGGAGAUCGAGCGACUUCCGACUUCGGUCGGGAGUCGGGCUAGUCAUCUUCGGAUGAUUAGCCGCUGGUGAAGCCUCCACGCCAGCCUCGGUCUCCCGCAGUAGGAUCGGACUGAAGGAGGCACGGUCCCAGCCGAAGUGUCUUGCUUCGGCAAGGCACUUUGGCUGCUAGACUGGCUGGCUUCGGCCAGCUAGUUUAGGAUUCUAUUGC
modifications: 2'-F at all C and U
For the molecule B3, the binding result (in series [5]; in the series with Factor IXa [6]; in the series with Factor Xa [7]; with Thrombin [8]) was “no binding” each time.

B4: 2HF-RNA-12NN (ssRNA)
RNA: GGGAGAUCGAGCGACUUCCGACUUCGGUCGGGAGUCGGGCUAGUCAUCGGGAACAAAGCUGAAGUACUUACCCGAUGAUUAGCCGCUGGUGAAGCCUCCACGCCAGCCUCGGUCUCCCGCAGUAGGAUCGGACUGAAGGAGGCACGGUCCCAGCCGAAGUGUCUGGCGGUCGAUCACACAGUUCAAACGUAAUAAGCCAAUGUACGAGGCAGACGACUCGCCAGGCACUUUGGCUGCUAGACUGGCUGGCUUCGGCCAGCUAGUUUAGGAUUCUAUUGC
modifications: 2'-F at all C and U
In the case of B4, the binding result is “no binding” in series [1] (setting [11]), “no binding” with Factor IXa [2] (setting [11]), “no binding” in the series with Factor Xa [3] (setting [11]) and “binds” in the series with Thrombin [4].

B5: 2HF-RNA-1N2N (ssRNA)
RNA: GGGAGAUCGAGCGACUUCCGACGGGAACAAAGCUGAAGUACUUACCCGUCGGGAGUCGGGCUAGUCAUCUUCGGAUGAUUAGCCGCUGGUGAAGCCUCCACGCCAGCCUCGGUCUCCCGCAGUAGGAUCGGACUGAAGGAGGCACGGUCCCAGCCGAAGUGUCUGGCGGUCGAUCACACAGUUCAAACGUAAUAAGCCAAUGUACGAGGCAGACGACUCGCCAGGCACUUUGGCUGCUAGACUGGCUGGCUUCGGCCAGCUAGUUUAGGAUUCUAUUGC
modifications: 2'-F at all C and U
Regarding B5, the binding result in series [1] (setting [10]) is given as “no binding”; with Factor IXa [2] (setting [10]), “no binding”; in the series with Factor Xa [3] (setting [10]) it was “no binding”; with Thrombin [4] it was “binds”.

These data come from patent publication US20220025373, “COMPOSITIONS AND METHODS RELATED TO NUCLEIC ACID ANTICOAGULANTS” (North Carolina State University, published 2022).
